B1: GST-tagged full-length Myo1c (natural protein)
chain: MALQVELIPTGEIIRVVHPHRPCKLALGSDGVRVTMESALTARDRVGVQDFVLLENFTSEAAFIENLRRRFRENLIYTYIGPVLVSVNPYRDLQIYSRQHMERYRGVSFYEVPPHLFAVADTVYRALRTERRDQAVMISGESGAGKTEATKRLLQFYAETCPAPERGGAVRDRLLQSNPVLEAFGNAKTLRNDNSSRFGKYMDVQFDFKGAPVGGHILSYLLEKSRVVHQNHGERNFHIFYQLLEGGEEETLRRLGLERNPQSYLYLVKGQCAKVSSINDKSDWKVVRKALTVIDFTEDEVEDLLSIVASVLHLGNTHFAADEESNAQVTTENQLKYLTRLLGVEGSTLREALTHRKIIAKGEELLSPLNLEQAAYARDALAKAVYSRTFTWLVAKINRSLASKDAESPSWRSTTVLGLLDIYGFEVFQHNSFEQFCINYCNEKLQQLFIELTLKSEQEEYEAEGIAWEPVQYFNNKIICDLVEEKFKGIISILDEECLRPGEATDLTFLEKLEDTIKQHPHFLTHKLADQRTRKSLDRGEFRLLHYAGEVTYNVTGFLDKNNDLLFRNLKETMCSSENPILGQCFDRSELSDKKRPETVATQFKMSLLELVEILKSKEPAYVRCIKPNDSKQPGRFDEVLIRHQVKYLGLMENLRVRRAGFAYRRKYEAFLQRYKSLCPETWPTWTGRPQDGVTVLVRHLGYKPEEYKMGRTKIFIRFPKTLFATEDALEIRRQSLATKIQATWRGFHCRQKFLRVKRSAICIQSWWRGTLGRRKAAKRKWAAQTIRRLIQGFILRHAPRCPENAFFVDHVRTSFLLNLRRQLPRNILDTSWPTPPPALREASELLRELCRKNMVWKYCRSISPEWKQQLQQKAVASEIFKGKKDNYPQSVPRLFISTRLGADEINPRVLQALGSEPIQYAVPVVKYDRKGYKPRSRQLLLTPNAVVIVEDAKVKQRIEYTNLTGISVSSLSDSLFVLHVQREDNKQKGDVVLQSDHVIETLTKTALSADRVNNININQGSITFAGGPGRDGIIDFTPGSELLITKAKNGHLAVVAPRLNSR
B2: GST-tagged Myo1c tail domain (domain or fragment)
chain: KDNYPQSVPRLFISTRLGADEINPRVLQALGSEPIQYAVPVVKYDRKGYKPRSRQLLLTPNAVVIVEDAKVKQRIEYTNLTGISVSSLSDSLFVLHVQREDNKQKGDVVLQSDHVIETLTKTALSADRVNNININQGSITFAGGPGRDGIIDFTPGSELLITKAKNGHLAVVAPRLNSR

Key:
[1] = target: Purified β-actin (Cytoskeleton) (UniProt P60709 1-375); experiment: SPR
[2] = target: Purified β-actin (Cytoskeleton) (UniProt P60709 1-375); experiment: SPR; remark: listed apart in the source

Binder | Kd [1] | Kd [2]
B1 | ≤ 2000 nM | 
B2 |  | ≤ 2000 nM

Source: publication PMC3392929 (The Journal of Cell Biology, 2012)
